From patent publication US20240279288A1, “APPLICATION OF PLANT JAZ PROTEINS AND DERIVED POLYPEPTIDES IN PREVENTION AND TREATMENT OF HUMAN AND ANIMAL TUMORS” (ANYANG INSTITUTE OF SINO-COTTON INDUSTRY INNOVATION, priority 2021, published 2024)

System: MCF7 cells
Experiment: Apoptosis staining (Calcein AM/PI), fluorescence microscopy
Format: cell-based, human
Conditions: Calcein AM/PI staining vs PBS
Procedure: Method for apoptosis staining. Fluorescence microscopy detection: a. Seeding and culturing. Cells were seeded onto multiwell plates such as 96-well plates, cell culture dishes, or cell slides, and were treated in a certain way according to the experimental design. b. Washing (optionally). For adherent cells, the medium was removed, and cells were washed once with PBS. For suspended cells, cells were centrifuged at 250-1000×g at room temperature for 5 min, with the supernatant removed, followed by washing once with PBS. Phenol red or serum might interfere with the detection of this kit, therefore, a vacuum pump was preferred when removing the medium and PBS. PBS washing was not necessary in the case that the residual liquid can be sufficiently aspirated. c. Staining. An appropriate volume of Calcein AM/PI detection working solution (Beyotime Biotech. Inc., Calcein/PI Cell Viability and Cytotoxicity Detection Kit, Cat. No.: C2015) was added. Usually, 100 μl were added to each well for a 96-well plate, 250 μl for a 24-well plate, 500 μl for a 12-well plate, and 1 ml for a 6-well plate. Incubation was performed at 37° C. in dark for 30 min. […] After incubation, the staining effect was observed under a fluorescence microscope (with Calcein AM in green fluorescence, Ex/Em=494/517 nm; PI in red fluorescence, Ex/Em=535/617 nm). […]

B1: GhJAZ1: cotton JAZ1 protein, gene number Gh_A05G0260, sequence SEQ ID No. 4; prokaryotically expressed with His tag, about 30 KD (protein)
chain: MSSCSESTAMKPARSPEKPSFAQTCNLLSQYLKEKGSFGDLSLGMTCNVEANGTPVVPPPTMNLFPLNDKSDDVCGRNGGNPKNLTSMDLFPQQAGLASKDDSPNKLEPQTAPMTIFYGGQVIVFNDFPANKAKEIMLLASNSSSQSNNSFNPIPFTSSIARSPIESSIGVPPTSKPVHPAQRAVPGDLPIARRASLHRFLEKRKDRITAKAPYQINNSAAAPSLSGDNKSWLGLAAQSP
modifications: His tag
notes: prokaryotically expressed with His tag, about 30 KD
With B1 as the molecule, how does the “mortality rate of MCF7 cells” value read?
Its value is “significantly increased”.
